# Reference: PMC6683012
# B1: SIRK1-cYFP [Arabidopsis] / QSK2-nYFP [Arabidopsis] (parent)
# chain 1: VTETELRSLLEFRKGIRDETSHQRISWSDTSSLTDPSTCPNDWPGISCDPETGSIIAINLDRRGLSGELKFSTLSGLTRLRNLSLSGNSFSGRVVPSLGGISSLQHLDLSDNGFYGPIPGRISELWSLNHLNLSSNKFEGGFPSGFRNLQQLRSLDLHKNEIWGDVGEIFTELKNVEFVDLSCNRFNGGLSLPMENISSISNTLRHLNLSHNALNGKFFSEESIGSFKNLEIVDLENNQINGELPHFGSQPSLRILKLARNELFGLVPQELLQSSIPLLELDLSRNGFTGSISEINSSTLTMLNLSSNGLSGDLPSSFKSCSVIDLSGNTFSGDVSVVQKWEATPDVLDLSSNNLSGSLPNFTSAFSRLSVLSIRNNSVSGSLPSLWGDSQFSVIDLSSNKFSGFIPVSFFTFASLRSLNLSRNNLEGPIPFRGSRASELLVLNSYPQMELLDLSTNSLTGMLPGDIGTMEKIKVLNLANNKLSGELPSDLNKLSGLLFLDLSNNTFKGQIPNKLPSQMVGFNVSYNDLSGIIPEDLRSYPPSSFYPGNSKLSLPGRIPADSSGDLSLPGKKHHSKLSIRIAIIVASVGAAIMILFVLFAYHRTQLKDFHGRNRFTDQATTRDTKFGRSSRPSLFNFSSNVEQQSSSLSFSNDHLLTANSRSLSGIPGCEAEISEQGAPATSAPTNLLDDYPAASGRKSSSGGSPLSSSPRFSDQPVMLDVYSPDRLAGELFFLDVSLKLTAEELSRAPAEVLGRSSHGTLYKATLDNGHMLTVKWLRVGLVRHKKDFAREAKKIGSLKHPNIVPLRAYYWGPREQERLLLSDYLRGESLAMHLYETTPRRYSPMSFSQRLKVAVEVAQCLLYLHDRAMPHGNLKPTNIILSSPDNTVRITDYCVHRLMTPSGVAEQILNMSALGYSAPELSSASKPIPTLKSDVYAFGVILMELLTRRSAGDIISGQTGAVDLTDWVRLCDQEGRRMDCIDRDIAGGEEFSKGMEDALAVAIRCILSVNERPNIRQVLDHLTSISA
# chain 2: DLEADRRALIALRDGVHGRPLLWNLTAPPCTWGGVQCESGRVTALRLPGVGLSGPLPIAIGNLTKLETLSFRFNALNGPLPPDFANLTLLRYLYLQGNAFSGEIPSFLFTLPNIIRINLAQNNFLGRIPDNVNSATRLATLYLQDNQLTGPIPEIKIKLQQFNVSSNQLNGSIPDPLSGMPKTAFLGNLLCGKPLDACPVNGTGNGTVTPGGKGKSDKLSAGAIVGIVIGCFVLLLVLFLIVFCLCRKKKKEQVVQSRSIEAAPVPTSSAAVAKESNGPPAVVANGASENGVSKNPAAVSKDLTFFVKSFGEFDLDGLLKASAEVLGKGTFGSSYKASFDHGLVVAVKRLRDVVVPEKEFREKLQVLGSISHANLVTLIAYYFSRDEKLVVFEYMSRGSLSALLHGNKGSGRSPLNWETRANIALGAARAISYLHSRDATTSHGNIKSSNILLSESFEAKVSDYCLAPMISPTSTPNRIDGYRAPEVTDARKISQKADVYSFGVLILELLTGKSPTHQQLHEEGVDLPRWVSSITEQQSPSDVFDPELTRYQSDSNENMIRLLNIGISCTTQYPDSRPTMPEVTRLIEEVSRSPASPGPLSD
# B2: QSK1-nYFP [Arabidopsis] / SIRK1-cYFP [Arabidopsis] (parent)
# chain 1: SDLESDRRALLAVRNSVRGRPLLWNMSASSPCNWHGVHCDAGRVTALRLPGSGLFGSLPIGGIGNLTQLKTLSLRFNSLSGPIPSDFSNLVLLRYLYLQGNAFSGEIPSLLFTLPSIIRINLGENKFSGRIPDNVNSATRLVTLYLERNQLSGPIPEITLPLQQFNVSSNQLNGSIPSSLSSWPRTAFEGNTLCGKPLDTCEAESPNGGDAGGPNTPPEKKDSDKLSAGAIVGIVIGCVVGLLLLLLILFCLCRKRKKEENVPSRNVEAPVAAATSSAAIPKETVVVVPPAKATGSESGAVNKDLTFFVKSFGEFDLDGLLKASAEVLGKGTVGSSYKASFEHGLVVAVKRLRDVVVPEKEFRERLHVLGSMSHANLVTLIAYYFSRDEKLLVFEYMSKGSLSAILHGNKGNGRTPLNWETRAGIALGAARAISYLHSRDGTTSHGNIKSSNILLSDSYEAKVSDYGLAPIISSTSAPNRIDGYRAPEITDARKISQKADVYSFGVLILELLTGKSPTHQQLNEEGVDLPRWVQSVTEQQTPSDVLDPELTRYQPEGNENIIRLLKIGMSCTAQFPDSRPSMAEVTRLIEEVSHSSGSPNPVSD
# chain 2: B1 chain 1
# B3: SIRK1-cYFP [Arabidopsis] / QSK1-nYFP [Arabidopsis] (parent)
# chain 1: B1 chain 1
# chain 2: B2 chain 1
# Variants of: B1
# Experiment: ratiometric bimolecular fluorescence complementation (rBiFC)
# Conditions: with QSK2-nYFP [Arabidopsis]; n=35 cells (parent n=32); value is box-plot median; parent: 1.6; read off a plot
row,response,Variant
1,1.7,chain 1 S723D

# Same assay, conditions: with QSK2-nYFP [Arabidopsis]; n=34 cells (parent n=32); value is box-plot median; parent: 1.6; read off a plot
row,response,Variant
1,0.15,chain 1 S723A

# Variants of: B2
# Experiment: as above
# Conditions: with SIRK1-cYFP [Arabidopsis]; n=14 cells (parent n=10); value is box-plot median; parent: 0.9; read off a plot
row,response,Variant
1,1,chain 1 S598A S603A

# Same assay, conditions: with SIRK1-cYFP [Arabidopsis]; n=12 cells (parent n=10); value is box-plot median; parent: 0.9; read off a plot
row,response,Variant
1,1.8,chain 1 S598D S603D

# Variants of: B3
# Experiment: as above
# Conditions: with QSK1-nYFP [Arabidopsis]; n=10 cells (parent n=10); value is box-plot median; parent: 0.9; read off a plot
row,response,Variant
1,1.3,chain 1 S723D
2,0.18,chain 1 S723A
